Data from publication PMC4057017.

Target: BG505 EnvΔCT trimer (cleaved, membrane-derived) (HIV-1 isolate BG505 (clade A))
Test: single particle EM reconstruction

PGT151 Fab showed a stoichiometry N (Fabs per trimer) of 2.
